Test [1] deals with HLA-C*03:03. The test is described as follows: IEDB peptide-MHC binding, purified MHC/direct/fluorescence; filed as Kd, often an IC50 or EC50 that approximates it; ≥ and ≤ were set here for values at or beyond the usual limits of such assays. As to conditions: source organism: Rickettsia bellii RML369-C.
Test [2] has as its target HLA-C*05:01. Described as above. As to conditions: source organism: Rickettsia bellii RML369-C.
Test [3] has as its target HLA-C*07:02. Described as above. The conditions noted are these: source organism: Rickettsia bellii RML369-C.
In test [4] the target is HLA-C*08:02. The test is described as above. The conditions noted are these: source organism: Rickettsia bellii RML369-C.
In test [5] the target is HLA-C*12:03. The test is described as above. As to conditions: source organism: Rickettsia bellii RML369-C.
Test [6] deals with HLA-C*14:02. Described as above. The conditions noted are these: source organism: Rickettsia bellii RML369-C.
For test [7], the target named is HLA-C*15:02. The test is described as above. The conditions noted are these: source organism: Rickettsia bellii RML369-C.
The target in test [8] is HLA-A*68:23. Description: IEDB peptide-MHC binding, purified MHC/competitive/fluorescence; filed as Kd, often an IC50 or EC50 that approximates it; ≥ and ≤ were set here for values at or beyond the usual limits of such assays. As to conditions: source organism: Rickettsia bellii RML369-C.
Test [9] has as its target HLA-B*15:02. The test is described as above. The conditions noted are these: source organism: Rickettsia bellii RML369-C.
The target in test [10] is HLA-B*15:42. Described as above. As to conditions: source organism: Rickettsia bellii RML369-C.
Test [11] addresses HLA-B*27:20. The test is described as above. The conditions noted are these: source organism: Rickettsia bellii RML369-C.
The target of test [12] is HLA-B*45:06. The description is as above. The conditions noted are these: source organism: Rickettsia bellii RML369-C.
Test [13] deals with HLA-B*83:01. Described as above. As to conditions: source organism: Rickettsia bellii RML369-C.
For test [14], the target named is HLA-C*06:02. Described as above. The conditions noted are these: source organism: Rickettsia bellii RML369-C.
Test [15] deals with HLA-A*02:01. The description is as above.
Test [16] has as its target HLA-A*02:12. Described as above. The conditions noted are these: source organism: Xanthobacter autotrophicus Py2.
The target in test [17] is HLA-A*03:01. The description is as above. The conditions noted are these: source organism: Xanthobacter autotrophicus Py2.
For test [18], the target named is HLA-A*25:01. The test is described as above. The conditions noted are these: source organism: Xanthobacter autotrophicus Py2.
Test [19] deals with HLA-A*26:01. The description is as above. The conditions noted are these: source organism: Xanthobacter autotrophicus Py2.
Test [20] concerns the target HLA-A*29:02. The description is as above. The conditions noted are these: source organism: Xanthobacter autotrophicus Py2.
Test [21] has as its target HLA-A*68:02. The test is described as above.
The target in test [22] is HLA-A*69:01. The description is as above. As to conditions: source organism: Xanthobacter autotrophicus Py2.
Test [23] deals with HLA-A*80:01. The description is as above. As to conditions: source organism: Xanthobacter autotrophicus Py2.
For test [24], the target named is HLA-B*15:17. The test is described as above.
Test [25] deals with HLA-B*18:01. Described as above. As to conditions: source organism: Xanthobacter autotrophicus Py2.
Test [26] concerns the target HLA-B*27:03. Described as above. As to conditions: source organism: Xanthobacter autotrophicus Py2.
The target of test [27] is HLA-B*46:01. Described as above. The conditions noted are these: source organism: Xanthobacter autotrophicus Py2.
The target of test [28] is HLA-B*51:01. The description is as above. The conditions noted are these: source organism: Xanthobacter autotrophicus Py2.
For test [29], the target named is HLA-B*57:01. The test is described as above. As to conditions: source organism: Xanthobacter autotrophicus Py2.
The target in test [30] is HLA-A*01:01. Description: IEDB peptide-MHC binding, purified MHC/direct/fluorescence; filed as Kd, often an IC50 or EC50 that approximates it; ≥ and ≤ were set here for values at or beyond the usual limits of such assays. The conditions noted are these: source organism: Camelpox virus CMS.
Test [31] concerns the target HLA-A*26:01. Described as above. As to conditions: source organism: Variola virus.
For test [32], the target named is HLA-A*31:01. The description is as above. The conditions noted are these: source organism: Camelpox virus CMS.
In test [33] the target is HLA-A*69:01. Described as above. As to conditions: source organism: Camelpox virus CMS.
Test [34] addresses HLA-B*07:02. The description is as above. The conditions noted are these: source organism: Camelpox virus CMS.
In test [35] the target is HLA-B*15:01. Described as above. As to conditions: source organism: Camelpox virus CMS.
The target of test [36] is HLA-B*27:05. The test is described as above. As to conditions: source organism: Camelpox virus CMS.
Test [37] addresses HLA-B*46:01. The description is as above. As to conditions: source organism: Camelpox virus CMS.
The target of test [38] is HLA-B*48:01. The test is described as above. As to conditions: source organism: Camelpox virus CMS.
Test [39] concerns the target HLA-B*57:01. The test is described as above. The conditions noted are these: source organism: Camelpox virus CMS.
The target in test [40] is HLA-B*58:01. The description is as above. As to conditions: source organism: Camelpox virus CMS.
Test [41] concerns the target HLA-A*11:01. The test is described as follows: IEDB peptide-MHC binding, purified MHC/competitive/fluorescence; filed as Kd, often an IC50 or EC50 that approximates it; ≥ and ≤ were set here for values at or beyond the usual limits of such assays. As to conditions: source organism: Vaccinia virus Tian Tan.
The target of test [42] is HLA-A*26:02. Described as above. As to conditions: source organism: Vaccinia virus Tian Tan.
The target in test [43] is HLA-B*15:09. Described as above. The conditions noted are these: source organism: Vaccinia virus Tian Tan.
Test [44] concerns the target HLA-B*35:01. Described as above. As to conditions: source organism: Vaccinia virus Tian Tan.
Test [45] addresses HLA-B*39:01. Described as above. The conditions noted are these: source organism: Vaccinia virus Tian Tan.
The target in test [46] is HLA-A*32:01. Description: IEDB peptide-MHC binding, purified MHC/competitive/radioactivity; filed as Kd, often an IC50 or EC50 that approximates it; ≥ and ≤ were set here for values at or beyond the usual limits of such assays. As to conditions: source organism: Vaccinia virus WR.
Test [47] addresses HLA-B*15:03. The description is as above. As to conditions: source organism: Vaccinia virus WR.
The mark [48] stands for this setting: source organism: Xanthobacter autotrophicus Py2.
[49] abbreviates: source organism: Vaccinia virus Tian Tan.

pKd: −log10 of the molar value.

By pKd is commonly meant −log10 of the Kd, conventionally taken in molar units.

With FAYKTGSSM, the pKd in [1] was not below 9.00; in [2] it was 5.83; in [3], 6.06; in test [4], 7.05; in test [5] it was not below 9.00; in [6], 6.94. Moreover, the pKd is 8.40 in [7]; 7.29 in test [8]; 7.90 in [9]; not above 5.30 in test [10]; 7.63 in test [11]; not above 5.30 in test [12]. Also, the values for the pKd in test [13] and in test [14] were not above 5.30 and 6.90, respectively.

With GQMYNMNTL, the pKd in test [15] (setting [48]) is not above 4.70; in test [16], 8.85; in test [17] it was not above 4.70; in test [18], not above 4.70; in test [19] it was not above 4.70; in test [20] it was not above 4.70. In addition, the pKd in test [21] (setting [48]), in test [22], in test [23], in test [24] (setting [48]), in test [25] and in [26] was not above 4.70 in each case. Besides, the pKd in [27], in test [28] and in test [29] was not above 4.70 each time.

WQFAIHYSF: the pKd in [30] was not above 4.70; in test [31], not above 4.70; in [32], not above 4.70; in test [33] it was not above 4.70; in test [34] it was not above 4.70; in [35], 6.89. For the same sequence, the pKd in test [36] was 6.56; in [37] it was not above 4.70; in test [38] it was 6.80; in test [39] it was not above 4.70; in test [40] it was not above 4.70; in test [15] (setting [49]), not above 4.70. Also, the pKd in [41] was not above 4.70; in [42], 6.08; in test [21] (setting [49]), not above 4.70; in [43], not above 4.70; in [24] (setting [49]), 5.33; in test [44], 6.04. The values for the pKd in test [45], in test [46] and in test [47] were 6.22, 8.56 and 8.35, respectively.

The record behind these values is the Immune Epitope Database (IEDB).
